Measurements published in PMC3416868, “The Fission Yeast GATA Factor, Gaf1, Modulates Sexual Development via Direct Down-Regulation of ste11+ Expression in Response to Nitrogen Starvation”.

Key:
[1] = target: T1, GST-Gaf1 (Schizosaccharomyces pombe (972?)) (UniProt Q10280); assay: competition; settings: 10 mM Tris pH 7.5, 2 mM MgCl2, 50 mM NaCl, 1 mM DTT, 5% glycerol, 2 ug poly(dI-dC) in 20 ul, room temperature, 20 min; 6% native PAGE
T1 sequence: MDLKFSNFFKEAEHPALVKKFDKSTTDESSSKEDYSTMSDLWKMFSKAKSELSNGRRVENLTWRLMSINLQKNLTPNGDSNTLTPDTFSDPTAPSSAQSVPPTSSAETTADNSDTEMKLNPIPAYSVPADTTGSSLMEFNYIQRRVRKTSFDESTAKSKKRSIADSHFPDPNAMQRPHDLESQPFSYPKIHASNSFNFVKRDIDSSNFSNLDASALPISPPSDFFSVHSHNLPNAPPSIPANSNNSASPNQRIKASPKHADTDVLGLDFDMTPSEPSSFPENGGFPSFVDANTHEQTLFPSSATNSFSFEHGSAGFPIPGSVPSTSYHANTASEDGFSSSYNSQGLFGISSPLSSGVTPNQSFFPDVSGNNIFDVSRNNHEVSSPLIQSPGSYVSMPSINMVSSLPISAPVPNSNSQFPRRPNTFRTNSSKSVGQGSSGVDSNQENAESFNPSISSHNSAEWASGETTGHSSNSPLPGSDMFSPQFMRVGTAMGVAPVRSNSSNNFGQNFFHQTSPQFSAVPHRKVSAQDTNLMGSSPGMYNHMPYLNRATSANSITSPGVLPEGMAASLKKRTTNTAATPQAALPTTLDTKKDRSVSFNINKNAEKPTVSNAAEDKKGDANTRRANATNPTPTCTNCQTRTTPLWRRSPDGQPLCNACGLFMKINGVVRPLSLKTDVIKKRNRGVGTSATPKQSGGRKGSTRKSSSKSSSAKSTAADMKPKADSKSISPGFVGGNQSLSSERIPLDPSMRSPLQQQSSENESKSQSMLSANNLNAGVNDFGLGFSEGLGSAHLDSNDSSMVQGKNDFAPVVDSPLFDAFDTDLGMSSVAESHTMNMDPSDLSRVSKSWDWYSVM

GST-Gaf1 [2] = target: T2, GST-Gaf1 (Schizosaccharomyces pombe, UniProt Q10280 1-855); assay: competition; cold PW, 100-fold, against labeled PA; 10 mM Tris pH 7.5, 2 mM MgCl2, 50 mM NaCl, 1 mM DTT, 5% glycerol, 2 ug poly(dI-dC) in 20 ul, room temperature, 20 min; 6% native PAGE; settings: protein: recombinant; tags: N-terminal GST (pGEX4T3); label: 32P 5'-end (probe); blunt
T2 sequence: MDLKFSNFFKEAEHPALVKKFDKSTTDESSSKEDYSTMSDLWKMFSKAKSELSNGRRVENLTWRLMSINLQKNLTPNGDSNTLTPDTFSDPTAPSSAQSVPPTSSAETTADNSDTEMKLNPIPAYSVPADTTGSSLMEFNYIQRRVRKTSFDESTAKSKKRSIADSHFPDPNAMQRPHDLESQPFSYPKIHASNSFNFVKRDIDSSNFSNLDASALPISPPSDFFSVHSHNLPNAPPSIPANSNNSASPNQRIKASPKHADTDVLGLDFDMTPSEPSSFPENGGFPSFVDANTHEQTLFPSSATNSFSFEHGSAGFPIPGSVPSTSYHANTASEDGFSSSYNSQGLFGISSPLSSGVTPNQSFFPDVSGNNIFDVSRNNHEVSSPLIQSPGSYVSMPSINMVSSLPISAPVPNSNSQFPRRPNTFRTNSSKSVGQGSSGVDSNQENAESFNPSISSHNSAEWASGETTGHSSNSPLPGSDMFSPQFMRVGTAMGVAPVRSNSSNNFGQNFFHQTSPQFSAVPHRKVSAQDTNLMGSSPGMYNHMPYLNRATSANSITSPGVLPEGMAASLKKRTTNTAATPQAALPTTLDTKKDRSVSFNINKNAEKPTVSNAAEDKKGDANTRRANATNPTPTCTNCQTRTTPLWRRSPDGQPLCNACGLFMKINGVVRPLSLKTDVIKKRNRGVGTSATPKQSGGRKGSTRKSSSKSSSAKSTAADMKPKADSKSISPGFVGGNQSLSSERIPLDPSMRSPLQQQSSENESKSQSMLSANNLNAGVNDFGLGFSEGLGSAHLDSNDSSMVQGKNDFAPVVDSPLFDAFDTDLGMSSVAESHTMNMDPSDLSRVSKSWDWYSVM

GST-Gaf1 [3] = target: T2, GST-Gaf1; assay: competition; cold PM, 100-fold, against labeled PA; 10 mM Tris pH 7.5, 2 mM MgCl2, 50 mM NaCl, 1 mM DTT, 5% glycerol, 2 ug poly(dI-dC) in 20 ul, room temperature, 20 min; 6% native PAGE; settings: protein: recombinant; tags: N-terminal GST (pGEX4T3); label: 32P 5'-end (probe)

GGATATCCTTTTAATATATGCTAAATGAATAGATTCTCACTATGTAAGTCACCAGGTATGTATGTATATATATATATATATACATACGCATTGGCAACCAACTAGTAAGAGTATAGAGCGAGGCGTAATACGCGATGTTACTGACAATGAAAATCAAACAAAGAAATTCAACTTTTTTAAGTCTAGCCAAAATGTGTATGAGGGGAAGGGACAAAATTCACAGGGGTTAAAGTAACATATG (double strand) [PB]
binding [1]: no binding

B1: PW (dsDNA)
DNA 1: CATTTTGCCTTGCGCTATCTCCCTCAACGAAAAG
DNA 2: CTTTTCGTTGAGGGAGATAGCGCAAGGCAAAATG
binding result (GST-Gaf1 [2]): binds

B2: PM (dsDNA)
DNA 1: CATTTTGCCTTGCGCATTGTCCCTCAACGAAAAG
DNA 2: CTTTTCGTTGAGGGACAATGCGCAAGGCAAAATG
binding result (GST-Gaf1 [3]): no binding
